pKd: −log10 of the molar value.
Columns and labels:
[1] = target: human FcγRI extracellular domain (human) (UniProt P12314); experiment: SPR (Biacore), FcγR ECD analyte; N=1
[2] = target: human FcγRIIA_131H extracellular domain (human) (UniProt P12318); experiment: SPR (Biacore), FcγR ECD analyte; N=1
[3] = target: human FcγRIIIA_158F extracellular domain (human) (UniProt P08637); experiment: SPR (Biacore), FcγR ECD analyte; N=1
[4] = target: human FcγRIIIA_158V extracellular domain (human) (UniProt P08637); experiment: SPR (Biacore), FcγR ECD analyte; N=1
human FcγRIIIA_158V extracellular domain (human), sequence (P08637 17-208 F176V): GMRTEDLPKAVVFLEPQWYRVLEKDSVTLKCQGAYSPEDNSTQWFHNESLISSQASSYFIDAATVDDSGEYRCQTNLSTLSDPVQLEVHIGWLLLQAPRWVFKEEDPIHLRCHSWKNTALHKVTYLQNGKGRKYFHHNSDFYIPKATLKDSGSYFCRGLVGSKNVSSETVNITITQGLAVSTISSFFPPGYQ

[5] = target: human FcγRIIb extracellular domain (human) (UniProt P31994); experiment: SPR (Biacore), FcγR ECD analyte; N=1
human FcγRIIb extracellular domain (human), sequence (P31994 43-217): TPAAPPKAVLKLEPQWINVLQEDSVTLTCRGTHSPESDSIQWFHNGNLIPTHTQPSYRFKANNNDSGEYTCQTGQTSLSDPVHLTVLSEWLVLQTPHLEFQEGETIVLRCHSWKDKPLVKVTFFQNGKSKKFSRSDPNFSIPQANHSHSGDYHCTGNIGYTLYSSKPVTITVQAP

[6] = target: human FcγRIIA_131R extracellular domain (human) (UniProt P12318); experiment: SPR (Biacore), FcγR ECD analyte; N=1
human FcγRIIA_131R extracellular domain (human), sequence (P12318 34-217 H167R): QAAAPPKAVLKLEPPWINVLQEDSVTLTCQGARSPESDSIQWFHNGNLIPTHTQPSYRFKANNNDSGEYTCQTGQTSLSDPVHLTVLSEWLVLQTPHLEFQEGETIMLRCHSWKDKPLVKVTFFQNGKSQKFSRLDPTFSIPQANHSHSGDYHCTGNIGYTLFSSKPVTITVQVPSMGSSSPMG

[7] = target: human FcγRIIA_131H extracellular domain (human) (UniProt P12318); experiment: SPR at 25 C, antibody captured on Protein A, FcγR ECD analyte, steady state
[8] = target: human FcγRIIA_131R extracellular domain (human) (UniProt P12318); experiment: as above
[9] = target: human FcγRIIIA_158F extracellular domain (human) (UniProt P08637); experiment: as above
[10] = target: human FcγRIIIA_158V extracellular domain (human) (UniProt P08637); experiment: as above

human FcγRI extracellular domain (human), sequence (P12314 16-292): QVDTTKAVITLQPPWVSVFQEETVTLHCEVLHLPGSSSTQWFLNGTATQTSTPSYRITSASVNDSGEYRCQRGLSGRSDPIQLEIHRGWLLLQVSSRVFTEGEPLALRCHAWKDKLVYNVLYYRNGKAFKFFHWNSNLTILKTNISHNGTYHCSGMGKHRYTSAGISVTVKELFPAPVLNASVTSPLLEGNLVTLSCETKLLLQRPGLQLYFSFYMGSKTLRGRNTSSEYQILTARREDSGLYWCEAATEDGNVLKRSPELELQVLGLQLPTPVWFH
human FcγRIIIA_158F extracellular domain (human), sequence (P08637 17-208): as the sequence (P08637 17-208 F176V) above, with V160F counted along it
human FcγRIIA_131H extracellular domain (human), sequence (P12318 34-217): as the sequence (P12318 34-217 H167R) above, with R134H counted along it

Substance | pKd [1] | pKd [2] | pKd [3] | pKd [4] | pKd [5] | pKd [6] | pKd [7] | pKd [8] | pKd [9] | pKd [10]
CD200R antibody IgG1 A330S + S267G | 9.78 | 5.48 | 4.97 | 5.78 | 5.30 | 6.09 | – | – | – | –
CD200R antibody IgG1 K322A | 10.52 | 6.01 | 5.59 | – | 5.47 | 6.09 | – | – | – | –
CD200R antibody IgG1 K322A + S267G | 10.15 | 5.30 | 5.00 | 5.78 | 5.35 | 6.18 | – | – | – | –
CD200R antibody IgG1 P331S | 10.27 | 5.94 | 5.51 | 6.35 | 5.33 | 5.94 | – | – | – | –
CD200R antibody IgG1 S267G | 9.88 | 5.50 | 5.35 | 6.14 | 5.47 | 6.28 | – | – | – | –
Hu IgG1 (antibody) | 10.26 | 6.15 | 5.59 | – | 5.38 | 5.99 | – | – | – | –
IgG4 PAA Control Antibody | – | – | – | – | – | – | – | – | – | 5.05

More lines, now with the values ahead:

pKd [1] | pKd [2] | pKd [3] | pKd [4] | pKd [5] | pKd [6] | pKd [7] | pKd [8] | pKd [9] | pKd [10] | Substance
9.29 | 5.29 | 5.01 | 5.61 | 5.37 | – | – | – | – | – | CD200R antibody IgG1 A330S + P331S + S267G
10.16 | 5.58 | – | 5.13 | 6.56 | 7.22 | – | – | – | – | CD200R antibody IgG1 N325S + L328F
9.85 | 5.28 | – | 5.68 | 5.36 | 6.11 | – | – | – | – | CD200R antibody IgG1 P331S + S267G
9.41 | 5.29 | – | 5.26 | 5.48 | 5.54 | – | – | – | – | Human IgG4P control antibody
– | – | – | – | – | – | 6.30 | 6.22 | 6.00 | – | IgG1 Control Antibody

— patent US20220251198A1
